Holding throughout (assay): SPR
One assay has as its target T1, mouse IL-33 (mouse, UniProt Q8BVZ5 1-266).
T1 chain: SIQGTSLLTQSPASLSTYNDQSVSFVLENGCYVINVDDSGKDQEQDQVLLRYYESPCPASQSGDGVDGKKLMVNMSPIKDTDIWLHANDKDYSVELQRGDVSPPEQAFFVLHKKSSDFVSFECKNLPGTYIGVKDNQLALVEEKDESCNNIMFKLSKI

In assay [1] the target is T2, anti-IL-17A-sST2 (mouse, UniProt P14719 27-332).
The next assay addresses anti-IL-17A.
Assay [2] concerns the target T2, anti-IL-17A-sST2. This is another data set of the same source.

Read-outs that look alike come from different tables or passages of the source.

What is called koff is the first-order rate constant of dissociation. Low readings indicate a long-lived complex, high ones a short-lived complex. A word on the Kd: it is a measure of binding affinity in units of concentration. Low readings indicate higher affinity, high ones lower affinity.

B1: sST2-Fc (Fc fusion)
chain: SKSSWGLENEALIVRCPQRGRSTYPVEWYYSDTNESIPTQKRNRIFVSRDRLKFLPARVEDSGIYACVIRSPNLNKTGYLNVTIHKKPPSCNIPDYLMYSTVRGSDKNFKITCPTIDLYNWTAPVQWFKNCKALQEPRFRAHRSYLFIDNVTHDDEGDYTCQFTHAENGTNYIVTATRSFTVEEKGFSMFPVITNPPYNHTMEVEIGKPASIACSACFGKGSHFLADVLWQINKTVVGNFGEARIQEEEGRNESSSNDMDCLTSVLRITGVTEKDLSLEYDCLALNLHGMIRHTIRLRRKQPIDHR
In the assay with mouse IL-33, B1 displayed a koff of 0.000199 s⁻¹.

B2: mouse IL-33 (ligand)
chain: MRPRMKYSNSKISPAKFSSTAGEALVPPCKIRRSQQKTKEFCHVYCMRLRSGLTIRKETSYFRKEPTKRYSLKSGTKHEENFSAYPRDSRKRSLLGSIQAFAASVDTLSIQGTSLLTQSPASLSTYNDQSVSFVLENGCYVINVDDSGKDQEQDQVLLRYYESPCPASQSGDGVDGKKLMVNMSPIKDTDIWLHANDKDYSVELQRGDVSPPEQAFFVLHKKSSDFVSFECKNLPGTYIGVKDNQLALVEEKDESCNNIMFKLSKI
B2 showed a koff with anti-IL-17A-sST2 [1] of 0.000143 s⁻¹.

B3: mouse IL-17A (protein)
chain: AAIIPQSSACPNTEAKDFLQNVKVNLKVFNSLGAKVSSRRPSDYLNRSTSPWTLHRNEDPDRYPSVIWEAQCRHQRCVNAEGKLDHHMNSVLIQQEILVLKREPESCPFTFRVEKMLVGVGCTCVASIVRQAA
For the molecule B3, the Kd with anti-IL-17A is 26.5 pM; with anti-IL-17A-sST2 [2], 45.8 pM. Besides, the koff with anti-IL-17A came to 1.57e-05 s⁻¹; in the assay with anti-IL-17A-sST2 [2], 2.17e-05 s⁻¹.

Source of the values: article PMC11117730 (2024).
